In paper doi:10.1101/2022.05.21.492920 one finds Kd data, which are given here for two substances.

The assay has as its target SARS-CoV-2 S (Acro Biosystems), unlabelled (SARS-CoV-2) (UniProt P0DTC2). The assay can be described thus: SPR; Biacore, CM5 chip; S covalently immobilised at pH 4.0 (about 8500 RU); ERα, ACE2 or NRP1 injected at 1.56 to 200 nM; global fit to a single site binding model.

For “ERα-full length (InVitrogen), analyte in SPR (from UniProt P03372 1-595) (receptor)”, the dissociation constant (Kd) worked out at 9.7 nM.
In turn, “recombinant NRP1 (Acro Biosystems), analyte in SPR (from UniProt O14786 22-856) (natural protein)” registered a Kd of 89.4 nM.
